Assay [1] concerns the target T1, Fc-NKG2D.wt (human).
T1 construct: also called NKG2D.wt Y|Y; natural Fc-NKG2D
Description: ELISA (called Kd in the text). As for the experimental part:
(§1) The binding affinities of α1-α2 variants to the extracellular domains of natural (wild-type) NKG2D and non-natural eNKG2D proteins were analyzed using a plate-based ELISA method. Each of the SEC fractionated natural Fc-NKG2D and non-natural Fc-eNKG2D fusions were coated overnight at 4° C. onto separate wells of Nunc Maxisorp 96 well plates (Thermo Fisher Scientific, Waltham, Mass.) using a coating concentration of 1 μg/mL in phosphate-buffered saline (PBS). The plates were washed three times in PBS/0.05% Tween-20 (PBS-T) at 20-22° C., and blocked with 0.5% bovine serum albumin in PBS (PBS-B) for 2 hours at 20-22° C. MicAbodies were titrated against the plate-bound natural or non-natural Fc-NKG2D fusions for 60 minutes at 20-22° C. in PBS/0.5% bovine serum albumin (BSA)/0.05% Tween-20 (PBS-BT), washed 3 times with PBS-T at 20-22° C., and the bound bispecific proteins detected using an HRP-conjugated anti-human kappa in PBS-BT (Abcam, Cambridge Mass.) and developed with 1-Step™ Ultra TMB ELISA Substrate Solution (Thermo Fisher Scientific, Waltham, Mass.).
On the technique in general: In an ELISA, binding on a coated surface is turned into a signal by an enzyme label.

The target in another assay is T2, Fc-eNKG2D4 (Y152V) (human).
T2 construct: also called eNKG2D4 V|Y
Description: ELISA, Fc-NKG2D coated, MicAbody titrated from 300 nM. As to the method:
as §1

A further assay addresses T3, Fc-eNKG2D3 (Y152T) (human).
T3 construct: also called eNKG2D3 T|Y
Described as above. As to the method: as §1

For the next assay, the target named is T4, Fc-eNKG2D14 (Y152L) (human).
T4 construct: also called eNKG2D14 L|Y
The assay is described as above. As to the method: as §1

The target in assay [2] is T1, Fc-NKG2D.wt. The description is as above. As for the experimental part: as §1
In another assay the target is T5, Fc-eNKG2D2 (Y152S) (human).
T5 construct: also called eNKG2D2 S|Y; not shown: human IgG1 Fc (without Fab domains)
Described as above. As for the experimental part: as §1

The target in assay [3] is T6, Fc-eNKG2D12 (Y152D/Y199D) (human).
T6 construct: also called eNKG2D12 D|D
T6 sequence (chain, as listed by the source Y152D Y199D Y152D Y199D limits assumed): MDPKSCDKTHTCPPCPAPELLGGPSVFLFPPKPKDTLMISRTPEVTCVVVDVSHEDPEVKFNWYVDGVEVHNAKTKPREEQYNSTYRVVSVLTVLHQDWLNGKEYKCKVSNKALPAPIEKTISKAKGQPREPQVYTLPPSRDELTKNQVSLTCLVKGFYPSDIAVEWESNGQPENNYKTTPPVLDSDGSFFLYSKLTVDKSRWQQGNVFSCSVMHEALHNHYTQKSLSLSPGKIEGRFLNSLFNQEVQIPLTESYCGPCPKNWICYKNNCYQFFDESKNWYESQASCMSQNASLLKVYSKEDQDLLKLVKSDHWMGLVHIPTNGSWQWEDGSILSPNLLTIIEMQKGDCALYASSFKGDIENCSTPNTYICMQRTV
The experiment in a line: ELISA, Fc-eNKG2D coated, MicAbody titrated from 300 nM. As for the experimental part:
as §1

In another assay the target is T7, Fc-eNKG2D8 (Y152T/Y199F) (human).
T7 construct: also called eNKG2D8 T|F
T7 sequence (chain, as listed by the source Y152T Y199F Y152T Y199F limits assumed): as the sequence (chain, as listed by the source Y152D Y199D Y152D Y199D limits assumed) above, with D312T, D359F counted along it
The description is as above. As for the experimental part:
as §1

Assay [4] concerns the target T8, Fc-eNKG2D5 (Y152A/Y199F) (human).
T8 construct: also called eNKG2D5 A|F; Fc-NKG2D.AF
The description is as above. As to the method:
as §1

The target in a further assay is T9, Fc-eNKG2D9 (Y152V/Y199F) (human).
T9 construct: also called eNKG2D9 V|F
T9 sequence (chain, as listed by the source Y152V Y199F Y152V Y199F limits assumed): as the sequence (chain, as listed by the source Y152D Y199D Y152D Y199D limits assumed) above, with D312V, D359F counted along it
The assay is described as above. As to the method:
as §1

The next assay addresses T10, Fc-eNKG2D6 (Y152L/Y199F) (human).
T10 construct: also called eNKG2D6 L|F
The assay is described as above. As to the method: as §1

In a further assay the target is T11, Fc-eNKG2D7 (Y152S/Y199F) (human).
T11 construct: also called eNKG2D7 S|F
T11 sequence (chain, as listed by the source Y152S Y199F Y152S Y199F limits assumed): as the sequence (chain, as listed by the source Y152D Y199D Y152D Y199D limits assumed) above, with D312S, D359F counted along it
Described as above. As for the experimental part:
as §1

In assay [5] the target is T12, Fc-eNKG2D13 (Y152E/Y199E) (human).
T12 construct: also called eNKG2D13 E|E
T12 sequence (chain, as listed by the source Y152E Y199E Y152E Y199E limits assumed): as the sequence (chain, as listed by the source Y152D Y199D Y152D Y199D limits assumed) above, with D312E, D359E counted along it
Described as above. As for the experimental part: as §1

Assay [6] has as its target T13, Fc-NKG2D.Y152A (human).
T13 construct: also called eNKG2D A|Y; Fc-NKG2D.YA
The experiment in a line: ELISA and Octet, bispecific antibody fused format.

Assay [7] has as its target T8, Fc-eNKG2D5 (Y152A/Y199F). Description: ELISA of rituximab-MicAbodies.
Assay [8] addresses T1, Fc-NKG2D.wt. The experiment in a line: ELISA of rituximab-MicAbodies.
The target in assay [9] is T14, WT α1-α2 domain (soluble wild-type MICA, titrated) (UniProt Q29983 24-204).
T14 construct: domain: α1-α2; also called WT MICA; WT NKG2DL
T14 sequence (looked up): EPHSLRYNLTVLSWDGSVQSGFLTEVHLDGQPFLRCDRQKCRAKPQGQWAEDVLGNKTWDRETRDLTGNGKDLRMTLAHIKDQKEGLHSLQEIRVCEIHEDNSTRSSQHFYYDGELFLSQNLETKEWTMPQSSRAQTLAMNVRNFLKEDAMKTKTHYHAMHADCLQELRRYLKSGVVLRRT
Description: BLI (Octet), biotinylated human NKG2D coated, 100 nM analyte.

Assay [10] addresses T14, WT α1-α2 domain (soluble wild-type …). The experiment in a line: BLI (Octet), Kd = kOFF/kON. A general note: In BLI a coated tip is dipped into the sample, and binding shifts an interference pattern.
Assay [11] has as its target T13, Fc-NKG2D.Y152A. Description: ELISA of rituximab-MicAbodies.
Assay [12] concerns the target T15, His-avitag natural NKG2D ectodomain, biotinylated (human).
T15 construct: also called natural form of the ectodomain of NKG2D
T15 chain: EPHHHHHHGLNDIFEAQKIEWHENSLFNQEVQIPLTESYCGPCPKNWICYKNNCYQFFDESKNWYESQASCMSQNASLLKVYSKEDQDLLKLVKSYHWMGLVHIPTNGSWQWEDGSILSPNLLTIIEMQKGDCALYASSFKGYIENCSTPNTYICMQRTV
The experiment in a line: BLI (Octet), biotinylated natural NKG2D ectodomain coated, 100 nM fusion. As to the method: In order to characterize and compare the kinetic binding parameters of the natural and 8 variant α1-α2 domains to natural NKG2D, we measured their binding to surface coated biotinylated natural NKG2D ectodomain using biolayer interferometry (Octet) at 100 nM of each of the α1-α2-α3-Fv fusion proteins.

Substitutions are numbered along the chain they refer to.

T8 sequence (chain, as listed by the source Y152A Y199F Y152A Y199F limits assumed): as the sequence (chain, as listed by the source Y152D Y199D Y152D Y199D limits assumed) above, with D312A, D359F counted along it
T10 sequence (chain, as listed by the source Y152L Y199F Y152L Y199F limits assumed): as the sequence (chain, as listed by the source Y152D Y199D Y152D Y199D limits assumed) above, with D312L, D359F counted along it

B1: ULBP2.wt rituximab-MicAbody (bispecific antibody, human IgG1, kappa)
heavy: not shown
light: QIVLSQSPAILSASPGEKVTMTCRASSSVSYIHWFQQKPGSSPKPWIYATSNLASGVPVRFSGSGSGTSYSLTISRVEAEDAATYYCQQWTSNPPTFGGGTKLEIKRTVAAPSVFIFPPSDEQLKSGTASVVCLLNNFYPREAKVQWKVDNALQSGNSQESVTEQDSKDSTYSLSSTLTLSKADYEKHKVYACEVTHQGLSSPVTKSFNRGECAPTSSSGGGGSEPHSLSYDITVIPKFRPGPRWCAVQGQVDEKTFLHYDCGNKTVTPVSPLGKKLNVTTAWKAQNPVLREVVDILTEQLRDIQLENYTPKEPLTLQARMSCEQKAEGHSSGSWQFSFDGQIFLLFDSEKRMWTTVHPGARKMKEKWENDKVVAMSFHYFSMGDCIGWLEDFLMGMDSTLEPS
notes: also called ULBP2 MicAbody
In the case of B1, the concentration for a half-maximal effect (EC50) with Fc-NKG2D.wt [1] was 0.0014 µM; in the assay with Fc-eNKG2D4 (Y152V) it was 0.0358 µM; with Fc-eNKG2D3 (Y152T) it was 0.0311 µM; in the assay with Fc-eNKG2D14 (Y152L), 0.0876 µM; in the assay with Fc-NKG2D.wt [2], 0.00141 µM; with Fc-eNKG2D2 (Y152S), 0.0348 µM. The binding result (in assay [3]; in the assay with Fc-eNKG2D8 (Y152T/Y199F); with Fc-eNKG2D5 (Y152A/Y199F) [4]; with Fc-eNKG2D9 (Y152V/Y199F); with Fc-eNKG2D6 (Y152L/Y199F); with Fc-eNKG2D7 (Y152S/Y199F)) was “no binding (tested: 300 nM)” each time. Further, in [5], the binding result was “no binding (tested: 300 nM)”.

B2: rituximab-ULBP2.S3 MicAbody (bispecific antibody, human IgG1, kappa)
heavy: not shown
light: B1 light with R302W, M376T, S377K, F378L, H379Y, Y380L, F381W
notes: also called ULBP2.S3 as a MicAbody
Regarding B2, the binding result in the assay with Fc-NKG2D.Y152A [6] is reported as “binds”; with Fc-eNKG2D5 (Y152A/Y199F) [7], “no binding”; with Fc-NKG2D.wt [8], “no binding”.

B3: biotinylated human NKG2D (Example 1) (receptor, UniProt P26718 78-216, looked up)
chain: FLNSLFNQEVQIPLTESYCGPCPKNWICYKNNCYQFFDESKNWYESQASCMSQNASLLKVYSKEDQDLLKLVKSYHWMGLVHIPTNGSWQWEDGSILSPNLLTIIEMQKGDCALYASSFKGYIENCSTPNTYICMQRTV
notes: also called recombinant biotinylated NKG2D
In the case of B3, in assay [9], the off-rate (koff) is 0.0018 s⁻¹ and the on-rate constant (kon) came to 130000 M⁻¹ s⁻¹. Also, the affinity in [10], expressed as Kd, was 0.0138 µM.

B4: rituximab-ULBP2.R MicAbody (bispecific antibody, human IgG1, kappa)
heavy: not shown
light: QIVLSQSPAILSASPGEKVTMTCRASSSVSYIHWFQQKPGSSPKPWIYATSNLASGVPVRFSGSGSGTSYSLTISRVEAEDAATYYCQQWTSNPPTFGGGTKLEIKTVAAPSVFIFPPSDEQLKSGTASVVCLLNNFYPREAKVQWKVDNALQSGNSQESVTEQDSKDSTYSLSSTLTLSKADYEKHKVYACEVTHQGLSSPVTKSFNRGECAPTSSSGGGGSEPHSLSYDITVIPKFRPGPRWCAVQGQVDEKTFLHYDCGNKTVTPVSPLGKKLNVTTAWKAQNPVLREVVDILTEQLWDIQLENYTPKEPLTLQARMSCEQKAEGHSSGSWQFSFDGQIFLLFDSEKRMWTTVHPGARKMKEKWENDKVVATLLWGWSMGDCIGWLEDFLMGMDSTLEPS
notes: also called rituximab-MicAbody with ULBP2 variant R
Take B4: in the assay with Fc-NKG2D.Y152A [11], the binding result was “no binding”.

B5: DSM25 α1-α2-α3-Fv fusion (SEQ ID NO 43) (ligand)
chain: EPHSLRYNLTVLSWDGSVQSGFLTEVHLDGQPFLRCDRQKCRAKPQGQWAEDVLGNKTWDRETRDLTGWGKDLRMTLAHIKDQKEGLHSLQEIRVCEIHEDNSTRSSQHFYYDGELFLSQNLETLEWTMPQSSRAQTLAMNVRNFLKEDAMETDTHYHAMRADCLSELRRYLKSGVVLRRTVPPMVQVTRSEASGGSGDRVTITCRASQDVSTAVAWYQQKPGKAPKLLIYSASFLYSGVPSRFSGSGSGTDFTLTISSLQPEDFATYYCQQSYTTPPTFGQGTKVEIKGGSSRSSSSGGGGSGGGGEVQLVESGGGLVQPGGSLRLSCAASGFTFTSTGISWVRQAPGKGLEWVGRIYPTNGSTNYADSVKGRFTISADTSKNTAYLQMNSLRAEDTAVYYCARTYGIYDLYVDYTEYVMDYWGQGTLVTVSSGGSSRSSSSGGGGSGGGGDIQMTQSPSSLSASGGSGQITVTCRASGFYPWNITLSWRQDGVSLSHDTQQWGDVLPDGQGTYQTWVATRISQGEEQRFTCYMEHSGQHSTHPVPSGKGSHHHHHH
With B5, the binding result in assay [12] is “binds”.

The term EC50 denotes the concentration needed to bring the measured effect to its halfway point. A high value points to lower potency in that assay. For orientation: koff means a measure of how fast the partners let go of each other. As a reminder, the kon is the rate constant with which the complex forms. A high value points to fast association. By Kd is commonly meant the concentration at which binding is half-saturated. Low readings indicate a tighter complex, high ones a looser complex.

(Values after patent publication US20200239541A1 (XYPHOS BIOSCIENCES, published 2020).)
